Assay results from patent publication US20180292411A1.

Target: S100A9 (human) (UniProt P06702)
Experiment: cell-based or functional assay

Chain of S100A9 (human) (P06702 whole entry): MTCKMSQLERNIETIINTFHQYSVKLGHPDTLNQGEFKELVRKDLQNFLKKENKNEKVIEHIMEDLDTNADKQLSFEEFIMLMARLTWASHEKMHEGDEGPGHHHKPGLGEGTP

S100A9 high-affinity chimeric (CD33-IgG1) decoy receptor (from UniProt P20138 18-259) (Fc fusion)
colony-forming capacity of MDS BM-MNC (fold greater than controls): < 6.6
